We go through 19 molecules from patent publication US20090317363A1.

The target of the assay is CCR5 (UniProt P51681). Put plainly: cell-based or functional assay.

B1: RANTES derivative: signature sequence SEQ ID NO: 10 fused to positions 10-68 of native RANTES (SEQ ID NO: 1) (ligand)
chain: QGPPLMWLQSCCFAYIARPLPRAHIKEYFYTSGKCSNPAVVFVTRKNRQVCANPEKKWVREYINSLEMS
Molecule B1 registered a CCR5 sequestration (%) (% of control surface CCR5) of 0; a CCR5 signalling (%) (% of Emax of PSC-RANTES) of 2.3; an anti-HIV potency (IC50, nM) by cell fusion assay of 0.03 nM; an anti-HIV potency (IC50, nM) by viral replication assay of 0.403 nM.

B2: RANTES derivative: signature sequence SEQ ID NO: 11 fused to positions 10-68 of native RANTES (SEQ ID NO: 1) (ligand)
chain: QGPPLMALQVCCFAYIARPLPRAHIKEYFYTSGKCSNPAVVFVTRKNRQVCANPEKKWVREYINSLEMS
B2 displayed a CCR5 sequestration (%) (% of control surface CCR5) of 9; a CCR5 signalling (%) (% of Emax of PSC-RANTES) of 1.6; an anti-HIV potency (IC50, nM) by cell fusion assay of 0.03 nM.

B3: RANTES derivative: signature sequence SEQ ID NO: 21 fused to positions 10-68 of native RANTES (SEQ ID NO: 1) (ligand)
chain: QGPPGDWLQVCCFAYIARPLPRAHIKEYFYTSGKCSNPAVVFVTRKNRQVCANPEKKWVREYINSLEMS
In the case of B3, the CCR5 sequestration (%) (% of control surface CCR5) worked out at 54; the CCR5 signalling (%) (% of Emax of PSC-RANTES) worked out at 14.2; the anti-HIV potency (IC50, nM) by cell fusion assay worked out at 0.54 nM.

B4: RANTES derivative: signature sequence SEQ ID NO: 18 fused to positions 10-68 of native RANTES (SEQ ID NO: 1) (ligand)
chain: QGPPGSYDYSCCFAYIARPLPRAHIKEYFYTSGKCSNPAVVFVTRKNRQVCANPEKKWVREYINSLEMS
With B4, the CCR5 sequestration (%) (% of control surface CCR5) amounted to 69; the CCR5 signalling (%) (% of Emax of PSC-RANTES) is 90.1; the anti-HIV potency (IC50, nM) by cell fusion assay was 0.08 nM.

B5: RANTES derivative: signature sequence SEQ ID NO: 15 fused to positions 10-68 of native RANTES (SEQ ID NO: 1) (ligand)
chain: QGPPLMQTTPCCFAYIARPLPRAHIKEYFYTSGKCSNPAVVFVTRKNRQVCANPEKKWVREYINSLEMS
In the case of B5, the CCR5 sequestration (%) (% of control surface CCR5) is 2; the CCR5 signalling (%) (% of Emax of PSC-RANTES) was determined as 2.4; the anti-HIV potency (IC50, nM) by cell fusion assay worked out at 0.65 nM.

B6: RANTES derivative: signature sequence SEQ ID NO: 12 fused to positions 10-68 of native RANTES (SEQ ID NO: 1) (ligand)
chain: QGPPLMWLGGCCFAYIARPLPRAHIKEYFYTSGKCSNPAVVFVTRKNRQVCANPEKKWVREYINSLEMS
For the molecule B6, the CCR5 sequestration (%) (% of control surface CCR5) was 4; the CCR5 signalling (%) (% of Emax of PSC-RANTES) stood at 4.1; the anti-HIV potency (IC50, nM) by cell fusion assay is 0.03 nM; the anti-HIV potency (IC50, nM) by viral replication assay is 0.204 nM.

B7: RANTES derivative: signature sequence SEQ ID NO: 24 fused to positions 10-68 of native RANTES (SEQ ID NO: 1) (ligand)
chain: QGPPLMSLQVCCFAYIARPLPRAHIKEYFYTSGKCSNPAVVFVTRKNRQVCANPEKKWVREYINSLEMS
For the molecule B7, the CCR5 sequestration (%) (% of control surface CCR5) amounted to 35; the CCR5 signalling (%) (% of Emax of PSC-RANTES) was 2.4; the anti-HIV potency (IC50, nM) by cell fusion assay was found to be 0.03 nM; the anti-HIV potency (IC50, nM) by viral replication assay is 0.174 nM.

B8: RANTES derivative: signature sequence SEQ ID NO: 22 fused to positions 10-68 of native RANTES (SEQ ID NO: 1) (ligand)
chain: QGPPLMSFQSCCFAYIARPLPRAHIKEYFYTSGKCSNPAVVFVTRKNRQVCANPEKKWVREYINSLEMS
The molecule B8 showed a CCR5 sequestration (%) (% of control surface CCR5) of 12; a CCR5 signalling (%) (% of Emax of PSC-RANTES) of 2.4; an anti-HIV potency (IC50, nM) by cell fusion assay of 0.02 nM; an anti-HIV potency (IC50, nM) by viral replication assay of 0.47 nM.

B9: RANTES derivative: signature sequence SEQ ID NO: 3 fused to positions 10-68 of native RANTES (SEQ ID NO: 1) (ligand)
chain: QGPPLMWMQVCCFAYIARPLPRAHIKEYFYTSGKCSNPAVVFVTRKNRQVCANPEKKWVREYINSLEMS
B9: the CCR5 sequestration (%) (% of control surface CCR5) was 3; the CCR5 signalling (%) (% of Emax of PSC-RANTES) is less than 5; the anti-HIV potency (IC50, nM) by cell fusion assay is 0.02 nM.

B10: RANTES derivative: signature sequence SEQ ID NO: 16 fused to positions 10-68 of native RANTES (SEQ ID NO: 1) (ligand)
chain: QGPPGDTVLWCCFAYIARPLPRAHIKEYFYTSGKCSNPAVVFVTRKNRQVCANPEKKWVREYINSLEMS
Molecule B10 yielded a CCR5 sequestration (%) (% of control surface CCR5) of 70; a CCR5 signalling (%) (% of Emax of PSC-RANTES) of 96.3; an anti-HIV potency (IC50, nM) by cell fusion assay of 0.02 nM; an anti-HIV potency (IC50, nM) by viral replication assay of 0.091 nM.

B11: RANTES derivative: signature sequence SEQ ID NO: 23 fused to positions 10-68 of native RANTES (SEQ ID NO: 1) (ligand)
chain: QGPPLMSTQSCCFAYIARPLPRAHIKEYFYTSGKCSNPAVVFVTRKNRQVCANPEKKWVREYINSLEMS
Take B11: the CCR5 sequestration (%) (% of control surface CCR5) worked out at 35; the CCR5 signalling (%) (% of Emax of PSC-RANTES) worked out at 5.3; the anti-HIV potency (IC50, nM) by cell fusion assay turned out to be 0.03 nM; the anti-HIV potency (IC50, nM) by viral replication assay was 0.625 nM.

B12: RANTES derivative: signature sequence SEQ ID NO: 20 fused to positions 10-68 of native RANTES (SEQ ID NO: 1) (ligand)
chain: QGPLSGQSTPCCFAYIARPLPRAHIKEYFYTSGKCSNPAVVFVTRKNRQVCANPEKKWVREYINSLEMS
B12 came in with a CCR5 sequestration (%) (% of control surface CCR5) of 71; a CCR5 signalling (%) (% of Emax of PSC-RANTES) of 95.6; an anti-HIV potency (IC50, nM) by cell fusion assay of 0.66 nM.

B13: RANTES derivative: signature sequence SEQ ID NO: 26 fused to positions 10-68 of native RANTES (SEQ ID NO: 1) (ligand)
chain: QGPLSGWLQVCCFAYIARPLPRAHIKEYFYTSGKCSNPAVVFVTRKNRQVCANPEKKWVREYINSLEMS
Molecule B13 returned a CCR5 sequestration (%) (% of control surface CCR5) of 41; a CCR5 signalling (%) (% of Emax of PSC-RANTES) of 9.4; an anti-HIV potency (IC50, nM) by cell fusion assay of 0.58 nM.

B14: RANTES derivative: signature sequence SEQ ID NO: 28 fused to positions 10-68 of native RANTES (SEQ ID NO: 1) (ligand)
chain: QGPPGSWSSVCCFAYIARPLPRAHIKEYFYTSGKCSNPAVVFVTRKNRQVCANPEKKWVREYINSLEMS
For B14, the CCR5 sequestration (%) (% of control surface CCR5) was 59; the CCR5 signalling (%) (% of Emax of PSC-RANTES) stood at 45; the anti-HIV potency (IC50, nM) by cell fusion assay turned out to be 0.03 nM; the anti-HIV potency (IC50, nM) by viral replication assay stood at 0.213 nM.

B15: RANTES derivative: signature sequence SEQ ID NO: 13 fused to positions 10-68 of native RANTES (SEQ ID NO: 1) (ligand)
chain: QGPPLMWRGSCCFAYIARPLPRAHIKEYFYTSGKCSNPAVVFVTRKNRQVCANPEKKWVREYINSLEMS
B15 returned a CCR5 sequestration (%) (% of control surface CCR5) of 9; a CCR5 signalling (%) (% of Emax of PSC-RANTES) of less than 5; an anti-HIV potency (IC50, nM) by cell fusion assay of 0.07 nM.

B16: RANTES derivative: signature sequence SEQ ID NO: 29 fused to positions 10-68 of native RANTES (SEQ ID NO: 1) (ligand)
chain: QGPPLGSMGPCCFAYIARPLPRAHIKEYFYTSGKCSNPAVVFVTRKNRQVCANPEKKWVREYINSLEMS
For the molecule B16, the CCR5 sequestration (%) (% of control surface CCR5) is 36; the CCR5 signalling (%) (% of Emax of PSC-RANTES) is 22.6; the anti-HIV potency (IC50, nM) by cell fusion assay is 0.39 nM.

B17: RANTES derivative: signature sequence SEQ ID NO: 19 fused to positions 10-68 of native RANTES (SEQ ID NO: 1) (ligand)
chain: QGPPGDGGSVCCFAYIARPLPRAHIKEYFYTSGKCSNPAVVFVTRKNRQVCANPEKKWVREYINSLEMS
B17 displayed a CCR5 sequestration (%) (% of control surface CCR5) of 66; a CCR5 signalling (%) (% of Emax of PSC-RANTES) of 85.1; an anti-HIV potency (IC50, nM) by cell fusion assay of 0.28 nM.

B18: RANTES derivative: signature sequence SEQ ID NO: 14 fused to positions 10-68 of native RANTES (SEQ ID NO: 1) (ligand)
chain: QGPLLMWLQVCCFAYIARPLPRAHIKEYFYTSGKCSNPAVVFVTRKNRQVCANPEKKWVREYINSLEMS
The molecule B18 gave a CCR5 sequestration (%) (% of control surface CCR5) of 8; a CCR5 signalling (%) (% of Emax of PSC-RANTES) of 1.4; an anti-HIV potency (IC50, nM) by cell fusion assay of 0.13 nM.

B19: RANTES derivative: signature sequence SEQ ID NO: 17 fused to positions 10-68 of native RANTES (SEQ ID NO: 1) (ligand)
chain: QGPPGDIVLACCFAYIARPLPRAHIKEYFYTSGKCSNPAVVFVTRKNRQVCANPEKKWVREYINSLEMS
For B19, the CCR5 sequestration (%) (% of control surface CCR5) is 70; the CCR5 signalling (%) (% of Emax of PSC-RANTES) is 87.7; the anti-HIV potency (IC50, nM) by cell fusion assay stood at 0.02 nM; the anti-HIV potency (IC50, nM) by viral replication assay was 129 nM.
